Like-named read-outs stand apart in the source and are kept apart here.
Experiments:
[1] = Detergent collapse effect on 5768.4 SOSIP R6 gp140 preparation, BN-PAGE; assay type: physicochemical; details: 1 hour, room temperature
Method: FIG. 15: Detergent “collapse” effect on subtype B 5768.4 HMW aggregate. 0.24 ug of purified subtype B 5768.4 SOSIP R6 gp140 trimer was incubated with 0.05 or 0.1% Tween 20. In addition, similar incubations were performed with NP40, Triton X-100, and SDS (at a final concentration of 0.1%) or the trimer preparation was untreated. Reactions were separated on BN-PAGE and visualized by coomassie G-250 stain. Arrows indicate HMW aggregate, a2M contaminant, trimer and monomer proteins. M stands for the 669 k thyroglobulin and 440 k ferritin molecular weight protein standards.
Tween® 20 Dose effect: 1 ug of purified 5768.4 SOSIP R6 trimer was incubated with varying concentrations of Tween® 20 ranging from 0.1 to 0.0001% (v/v) and incubated for 1 hour at room temperature. Following incubation, samples were analyzed by BN-PAGE as described above. Detergent effect on 5768.4 SOSIP R6 gp140 trimer preparations: 0.24 ug of purified 5768.4 SOSIP R6 trimer was incubated with Triton X-100, NP-40, or SDS to a final detergent concentration of 0.1% (v/v) or with Tween® 20 at concentrations of 0.05 and 0.1% for 1 hour at room temperature. Following incubation, 4× BN-PAGE MOPS sample buffer was added and the samples were immediately analyzed on BN-PAGE at 150 V for 2 hours at room temperature, followed by Coomassie G-250 staining.

[2] = tested on: HIV-1KNH1144 Env-pseudotyped virus; experiment: Env-pseudotyped HIV-1 neutralization assay, KNH1144 Env; assay type: cell-based; details: CCR5 inhibitors and RT inhibitor, read-out: Env-pseudotyped neutralization (50% endpoint) KNH1144
Method: (§1) FIGS. 4A-AF: Inhibition of infection by HIV-1JR-FL (filled circles) or HIV-1KNH1144 (open circles) Env-pseudotyped viruses by MAbs and fusion inhibitors. The viruses were incubated with the indicated concentrations of the inhibitors for 1 h prior to addition to U87.CD4.CCR5 cells. The luciferase content of cell lysates was determined after 3-4 days.
(§2) The generation and quantification of Env-pseudotyped HIV-1 viruses and their subsequent use in neutralization assays have been described previously.^45,65. U87.CD4.CCR5 target cells were used because the input pseudoviruses had the R5 phenotype. The amount of input pseudovirus was normalized by infectivity (virus titer). Virus infection was measured by determining luciferase expression in relative light units (RLU) in target cell lysates, according to the manufacturer's instructions (Promega, Madison, Wis.).
(§3) To assess the neutralization sensitivity of viruses bearing subtype A Env proteins, cytoplasmic tail-truncated gp140s from KER2008, KNH1144, KNH1207 and KNH1211 were co-expressed in trans with the pNL4/3.Luc plasmid to form single cycle, replication-incompetent pseudoviruses^72. Pseudovirions bearing the full-length Env protein from HIV-1JR-FL were also studied, for comparison.

[3] = tested on: HIV-1JR-FL Env-pseudotyped virus; experiment: Env-pseudotyped HIV-1 neutralization assay, JR-FL Env; assay type: cell-based; details: CCR5 inhibitors and RT inhibitor, read-out: Env-pseudotyped neutralization (50% endpoint) JR-FL
Method: as §1, §2, §3

[4] = target: Q23-17 gp120 (monomeric, subtype A) (HIV-1 Q23-17, subtype A); experiment: ELISA on D7324-captured gp120, half-maximal binding
[5] = target: KNH1211 gp120 (monomeric, subtype A) (HIV-1 KNH1211, subtype A); experiment: as above
[6] = target: gp120DU151 (subtype C) (HIV-1 DU151, subtype C); experiment: as above
[7] = target: KER2008 gp120 (monomeric, subtype A) (HIV-1 KER2008, subtype A); experiment: as above
[8] = target: KNH1207 gp120 (monomeric, subtype A) (HIV-1 KNH1207, subtype A); experiment: as above
[9] = target: KNH1144 gp120 (monomeric, subtype A) (HIV-1 KNH1144, subtype A); experiment: as above
[10] = target: gp120JR-FL (monomeric, subtype B) (HIV-1 JR-FL, subtype B); experiment: as above
[11] = target: gp120BaL (subtype B) (HIV-1 BaL, subtype B); experiment: as above
[12] = Oligomeric stability of purified SOSIP gp140 trimers to detergents, BN-PAGE; assay type: physicochemical; details: 0.1% (v/v), 1 h, 25° C.
Method: Biophysical and antigenic characterization of purified trimers derived from KNH1144 SOSIP gp140. (A) Trimeric KNH1144 SOSIP gp140 was treated with 0.1% (v/v) ionic (SDS) and non-ionic (NP40, Nonidet-P40; Tw20 (Tween®-20); TX100 (Triton X-100) detergents for 1 h at 25° C. before BN-PAGE analysis. (B) Trimeric KNH1144 SOSIP gp140 was incubated with 0.5 μg/ml of the indicated MAbs or proteins, and then immunoprecipitated with protein G sepharose prior to analysis by SDS-PAGE.
The oligomeric stability of purified SOSIP gp140 trimers was determined essentially as previously described.^44 Briefly, 50 ng of protein was treated with 0.1% (v/v) SDS, Nonidet P-40, Tween®-20 or Triton X-100 for 1 h at room temperature, followed by analysis on BN-PAGE. The various oligomeric forms of Env resolved on the gel were detected by CA13 immunoblotting.
A purified Env trimer should meet several criteria to establish that it has been synthesized, folded, cleaved and otherwise post-translationally modified correctly. For example, it is important to establish that SOSIP gp140 trimers are oligomerized via non-covalent interactions between the gp41ECTO subunits, and not via aberrant inter-subunit disulfide bonds^40,66,67. For these assessments, purified KNH1144 SOSIP gp140 trimers were treated for 1 h at 25° C. with 0.1% (v/v) ionic (SDS) and non-ionic (NP-40, Tween®-20, Triton X-100) detergents and then analyzed by BN-PAGE. […] This is consistent with studies of JR-FL SOSIP gp140 trimers^44.

[13] = target: BB359 gp120 (monomeric, subtype A) (HIV-1 BB359, subtype A); experiment: ELISA on D7324-captured gp120, half-maximal binding
[14] = target: HIV-1KNH1211 Env on Env-pseudotyped virus (HIV-1 KNH1211, subtype A); experiment: cell-based or functional assay
[15] = target: HIV-1KNH1144 Env on Env-pseudotyped virus (HIV-1 KNH1144, subtype A); experiment: cell-based or functional assay
[16] = target: HIV-1KER2008 Env on Env-pseudotyped virus (HIV-1 KER2008, subtype A); experiment: cell-based or functional assay
[17] = target: HIV-1KNH1207 Env on Env-pseudotyped virus (HIV-1 KNH1207, subtype A); experiment: cell-based or functional assay

| Molecule | EC50 [4] [µg/mL] | EC50 [5] [µg/mL] | EC50 [6] [µg/mL] | EC50 [7] [µg/mL] | EC50 [8] [µg/mL] | EC50 [9] [µg/mL] | EC50 [10] [µg/mL] | EC50 [11] [µg/mL] | EC50 [13] [µg/mL] | also measured |
| --- | --- | --- | --- | --- | --- | --- | --- | --- | --- | --- |
| 5768.4 SOSIP R6 gp140: subtype B 5768.4 envelope modified to the soluble SOSIP R6 gp140 trimer; SEQ ID NO:10 | – | – | – | – | – | – | – | – | – | effect of NP40 on HMW aggregate ([1]; 0.1%): collapse of HMW aggregate to trimer; effect of SDS ([1]; 0.1%): breaking down the entire 5768.4 gp140 protein to resulting monomers; effect of Triton X-100 on HMW aggregate ([1]; 0.1%): capable of collapsing HMW aggregate to trimer, however, some breakdown to monomeric 5768.4 was observed; effect of Tween (Tween 20 and Tween 80) on HMW aggregate ([1]; 0.1 and 0.05%): effectively collapsed HMW aggregate to trimers |
| Cc1cn([C@H]2C[C@H](N=[N+]=[N-])[C@@H](CO)O2)c(=O)[nH]c1=O [AZT] | – | – | – | – | – | – | – | – | – | IC50 [2]: 240000 pM; IC50 [3]: 220000 pM |
| CCO/N=C(\c1ccc(Br)cc1)C1CCN(C2(C)CCN(C(=O)c3c(C)cc[n+]([O-])c3C)CC2)CC1 [SCH-C] | – | – | – | – | – | – | – | – | – | IC50 ([2]; Human immunodeficiency virus 1): 40 pM; IC50 ([3]; Human immunodeficiency virus 1): 200 pM |
| COC[C@@H](c1ccc(C(F)(F)F)cc1)N1CCN(C2(C)CCN(C(=O)c3c(C)ncnc3C)CC2)C[C@@H]1C [SCH-D] | – | – | – | – | – | – | – | – | – | IC50 ([2]; Human immunodeficiency virus 1): 10 pM; IC50 ([3]; Human immunodeficiency virus 1): 100 pM |
| CD4-immunoglobulin G2 (CD4-IgG2) protein (from UniProt P01730 26-204) (Fc fusion) | 0.083 | 0.063 | 0.09 | 0.236 | 0.068 | 0.103 | 0.046 | 0.057 | – | – |
| KNH1144 SOSIP gp140: soluble, disulfide-stabilized, I571P-modified cleaved trimeric gp140 of HIV-1 subtype A KNH1144 | – | – | – | – | – | – | – | – | – | adverse effects of NP-40 on trimers [12]: little; adverse effects of Triton X-100 on trimers [12]: little; adverse effects of Tween-20 on trimers [12]: no; effect of SDS on trimers [12]: completely dissociate into dimers and monomers |
| MAb CA13 (ARP 3119) (antibody) | 0.094 | 0.176 | 0.043 | 1.57 | 0.337 | 0.636 | > 9 | 0.059 | 0.406 | – |
| human monoclonal IgG 2F5 (antibody) | – | – | – | – | – | – | – | – | – | IC50, neutralization of Env-pseudotyped virus [14]: 0.03 µg/mL; IC90, neutralization of Env-pseudotyped virus [14]: 0.99 µg/mL; IC50, neutralization of Env-pseudotyped virus [15]: > 3 µg/mL; IC50, neutralization of Env-pseudotyped virus [16]: > 3 µg/mL; IC50, neutralization of Env-pseudotyped virus [17]: 0.01 µg/mL; IC90, neutralization of Env-pseudotyped virus [17]: 0.21 µg/mL |
| human monoclonal IgG 2G12 (antibody) | 0.54 | > 1 | > 1 | 0.064 | 0.478 | > 1 | 0.061 | 0.012 | > 1 | – |
| human monoclonal IgG b12 (antibody) | > 1 | 0.033 | 0.018 | > 1 | 0.092 | 0.642 | 0.027 | 0.015 | > 1 | IC50, neutralization of Env-pseudotyped virus [14]: 1.14 µg/mL; IC90, neutralization of Env-pseudotyped virus [14]: 1.9 µg/mL; IC90, neutralization of Env-pseudotyped virus [15]: > 3 µg/mL; IC90, neutralization of Env-pseudotyped virus [16]: > 3 µg/mL; IC50, neutralization of Env-pseudotyped virus [17]: 0.21 µg/mL; IC90, neutralization of Env-pseudotyped virus [17]: 0.9 µg/mL |

From patent US20110076298A1, “Soluble stabilized trimeric hiv env proteins and uses thereof” (priority 2006, published 2011)
